Patent publication US20250223378A1 (MABCARE THERAPEUTICS, published 2025)
Positions count from the first letter of the chain named. Values belong to the binder of their own block, whether it stands above or below them.

Assays:
[1] = molecular target: T1, PTK7 on the SK-OV-3 cell line (human ovarian cancer cells) (human, UniProt Q13308 31-1070); experiment: flow cytometry on SK-OV-3 cells, FITC goat anti-human secondary antibody, MFI
T1 construct: whole, on cells
T1 sequence (looked up): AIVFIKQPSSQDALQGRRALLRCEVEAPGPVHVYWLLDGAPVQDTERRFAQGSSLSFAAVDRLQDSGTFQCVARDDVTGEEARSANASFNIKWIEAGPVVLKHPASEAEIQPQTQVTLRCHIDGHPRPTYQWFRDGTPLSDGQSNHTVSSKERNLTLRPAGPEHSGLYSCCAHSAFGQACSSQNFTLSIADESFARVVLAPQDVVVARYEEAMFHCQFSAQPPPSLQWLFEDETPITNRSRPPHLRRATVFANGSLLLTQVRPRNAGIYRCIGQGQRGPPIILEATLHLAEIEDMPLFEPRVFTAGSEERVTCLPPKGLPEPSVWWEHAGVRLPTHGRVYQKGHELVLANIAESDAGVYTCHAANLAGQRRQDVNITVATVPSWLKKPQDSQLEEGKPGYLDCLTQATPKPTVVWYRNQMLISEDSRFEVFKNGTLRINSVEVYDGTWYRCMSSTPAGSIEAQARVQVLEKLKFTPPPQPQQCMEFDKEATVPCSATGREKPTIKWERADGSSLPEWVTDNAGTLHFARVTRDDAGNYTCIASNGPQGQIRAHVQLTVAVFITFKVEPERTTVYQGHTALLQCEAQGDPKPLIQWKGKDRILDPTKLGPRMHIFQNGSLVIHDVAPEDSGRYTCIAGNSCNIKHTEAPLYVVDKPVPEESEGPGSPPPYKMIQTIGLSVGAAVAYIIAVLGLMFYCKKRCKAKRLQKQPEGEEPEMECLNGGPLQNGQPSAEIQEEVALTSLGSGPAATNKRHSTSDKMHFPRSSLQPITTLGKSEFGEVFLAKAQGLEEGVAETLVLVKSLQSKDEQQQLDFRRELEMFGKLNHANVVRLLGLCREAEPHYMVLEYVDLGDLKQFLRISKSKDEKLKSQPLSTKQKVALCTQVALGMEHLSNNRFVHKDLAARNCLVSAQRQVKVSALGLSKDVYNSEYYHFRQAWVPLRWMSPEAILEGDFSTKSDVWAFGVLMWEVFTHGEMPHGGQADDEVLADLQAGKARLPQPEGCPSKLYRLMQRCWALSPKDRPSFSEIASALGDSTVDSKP
Procedure: SK-OV-3 (human ovarian cancer cells, ATCC, Catalog No. HTB-77) was digested with trypsin in a culture dish, and the digested cells were centrifuged at 1000 rpm for 5 min and then blocked with 10% goat serum (purchased from Beijing Solarbio Science & Technology Co. Ltd., Item No. SL038) for 30 min. The anti-PTK7 antibodies as prepared in Example 2 of the present disclosure were diluted in a 3-fold gradient with a starting concentration of 500 nM. At the end of dilution, the gradient diluted anti-PTK7 antibodies were added to the cells, incubated for 1 h, and washed twice with PBS. Then, FITC-labeled goat anti-human secondary antibody (purchased from Jackson ImmunoResarch, Item No. 109-545-008) was added at 1:500, incubated for 1 h, and finally washed twice with PBS. The results were analyzed by flow cytometry.

[2] = molecular target: T2, monkey PTK7 protein (Catalog No. PT7-C52H3, Acrobiosystems) (monkey, UniProt A0A2K5VNQ6 31-704); experiment: ELISA, PTK7 protein immobilized on the plate, peroxidase anti-human IgG, OD450
T2 construct: Bought protein; not shown: The vendor's purification tag, probably a C-terminal His tag
T2 sequence: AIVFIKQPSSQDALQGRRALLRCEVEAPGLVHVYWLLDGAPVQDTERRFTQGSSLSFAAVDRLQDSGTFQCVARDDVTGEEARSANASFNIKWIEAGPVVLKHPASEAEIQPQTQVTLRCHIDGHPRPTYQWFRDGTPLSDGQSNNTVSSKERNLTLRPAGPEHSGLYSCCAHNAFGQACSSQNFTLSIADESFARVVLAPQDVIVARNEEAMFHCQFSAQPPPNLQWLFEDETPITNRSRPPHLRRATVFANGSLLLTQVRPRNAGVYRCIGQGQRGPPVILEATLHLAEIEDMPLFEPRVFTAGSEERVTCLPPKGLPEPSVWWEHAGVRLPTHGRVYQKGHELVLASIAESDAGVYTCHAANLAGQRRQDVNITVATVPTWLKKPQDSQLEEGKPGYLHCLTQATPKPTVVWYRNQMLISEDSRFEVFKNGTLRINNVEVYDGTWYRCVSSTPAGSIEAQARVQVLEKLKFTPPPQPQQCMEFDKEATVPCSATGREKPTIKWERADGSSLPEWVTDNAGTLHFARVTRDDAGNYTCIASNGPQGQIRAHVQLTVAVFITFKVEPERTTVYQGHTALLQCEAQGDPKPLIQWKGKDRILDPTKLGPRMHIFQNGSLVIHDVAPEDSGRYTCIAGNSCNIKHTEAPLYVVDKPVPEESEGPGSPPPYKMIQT
Procedure: (§1) Human PTK7 protein (Catalog No. PT7-H52H3, Acrobiosystems), monkey PTK7 protein (Catalog No. PT7-C52H3, Acrobiosystems), and murine PTK7 protein (Catalog No. PT7-M52H3, Acrobiosystems) were incubated at 4° C. overnight and immobilized onto a 96-well plate. The plate was then blocked by incubating at 37° C. with 1% BSA in PBS for 1 h. After blocking, the plate was washed 3 times with PBST (PBS containing 0.05% Tween 20). Serial dilutions of anti-PTK7 antibody as prepared in Example 2 of the present disclosure was prepared in a binding buffer (PBS containing 0.05% Tween20 and 0.5% BSA) and incubated with the immobilized proteins at 37° C. for 1 h. After binding, the plate was washed 3 times with PBST, incubated with peroxidase-labeled donkey anti-human IgG (Jackson ImmunoResearch) diluted at 1/15,000 in the binding buffer at 37° C. for 1 h, washed again, developed with TMB and terminated with 1M H₂SO₄. The absorbance at 450 nm-620 nm was measured.

[3] = molecular target: T3, murine PTK7 protein (Catalog No. PT7-M52H3, Acrobiosystems) (murine, UniProt Q8BKG3 23-696); experiment: as above
T3 construct: Bought protein; also called mouse PTK7
T3 sequence (looked up): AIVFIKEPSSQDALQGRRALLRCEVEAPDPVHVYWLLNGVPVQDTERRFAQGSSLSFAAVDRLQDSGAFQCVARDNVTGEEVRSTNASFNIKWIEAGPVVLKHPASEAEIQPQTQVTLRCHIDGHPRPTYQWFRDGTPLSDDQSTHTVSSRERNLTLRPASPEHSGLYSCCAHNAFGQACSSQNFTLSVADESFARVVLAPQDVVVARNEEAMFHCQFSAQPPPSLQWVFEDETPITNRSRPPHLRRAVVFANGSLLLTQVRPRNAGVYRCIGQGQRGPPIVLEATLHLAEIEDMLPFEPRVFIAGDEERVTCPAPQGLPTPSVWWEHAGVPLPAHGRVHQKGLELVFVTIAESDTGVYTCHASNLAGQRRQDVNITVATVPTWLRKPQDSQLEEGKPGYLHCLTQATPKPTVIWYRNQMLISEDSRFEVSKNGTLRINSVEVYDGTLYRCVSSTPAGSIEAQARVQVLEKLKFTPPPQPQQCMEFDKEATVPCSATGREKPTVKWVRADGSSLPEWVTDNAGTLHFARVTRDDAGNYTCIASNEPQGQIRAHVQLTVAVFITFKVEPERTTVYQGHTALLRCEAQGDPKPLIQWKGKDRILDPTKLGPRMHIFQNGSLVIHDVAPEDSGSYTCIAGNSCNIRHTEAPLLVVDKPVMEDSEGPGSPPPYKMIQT
Procedure: as §1

[4] = molecular target: T4, Human PTK7 protein (Catalog No. PT7-H52H3, Acrobiosystems) (human, UniProt Q13308 31-704); experiment: as above
T4 construct: Bought protein
T4 sequence (looked up): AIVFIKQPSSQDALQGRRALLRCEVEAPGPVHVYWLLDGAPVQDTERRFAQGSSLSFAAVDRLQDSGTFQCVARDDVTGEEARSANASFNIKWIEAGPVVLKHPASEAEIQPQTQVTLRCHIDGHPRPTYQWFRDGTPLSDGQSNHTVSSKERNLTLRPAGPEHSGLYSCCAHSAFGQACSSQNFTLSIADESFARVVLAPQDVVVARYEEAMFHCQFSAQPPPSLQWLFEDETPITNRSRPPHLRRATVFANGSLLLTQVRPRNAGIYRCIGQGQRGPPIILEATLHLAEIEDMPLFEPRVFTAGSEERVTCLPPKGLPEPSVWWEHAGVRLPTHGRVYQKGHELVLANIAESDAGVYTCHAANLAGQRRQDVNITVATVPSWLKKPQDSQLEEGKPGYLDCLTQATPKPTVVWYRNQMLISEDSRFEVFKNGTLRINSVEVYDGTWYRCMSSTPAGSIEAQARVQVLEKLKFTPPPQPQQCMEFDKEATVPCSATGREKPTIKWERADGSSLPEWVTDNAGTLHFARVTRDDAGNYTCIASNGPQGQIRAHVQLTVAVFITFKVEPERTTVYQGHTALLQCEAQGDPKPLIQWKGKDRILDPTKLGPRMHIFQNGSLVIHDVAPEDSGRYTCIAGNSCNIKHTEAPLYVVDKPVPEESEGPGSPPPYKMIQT
Procedure: as §1

B1: humanized PTK7 antibody Hu13H3L3 (antibody, V domains shown)
VH: QVQLVQSGAEVKKPGASVKISCKGSGYTFTDYGMHWLKQAPGQGLEWIGVISPYYGDVNYNQKFQGRATMTVDKSISTAYMELSRLRSDDTAVYYCARGMGYWGQGTLVTVSS
VL: DVQITQSPSFLSASVGDRVTITCRASQSISKYLAWYQQKPGKAPKLLIYSGSTLQSGVPSRFSGSGSGTEFTLTISSLQPEDFAMYYCQQHNEYPWTFGQGTKVEIK
EC50 [1]: 0.156 nM

B2: humanized PTK7 antibody Hu13H3L0 (Ab13) (antibody, V domains shown)
VH: B1 VH
VL: B1 VL with V2I, I4L, M85T
EC50 [1]: 0.19 nM

B3: humanized PTK7 antibody Hu13H2L3 (antibody, V domains shown)
VH: B1 VH with I20V, K38R, I48M, A68V, V72R, A92V
VL: B1 VL
EC50 [1]: 0.213 nM

Continued, values first:

EC50 [1]: 0.161 nM
B4: humanized PTK7 antibody Hu13H3L5 (antibody, V domains shown)
VH: B1 VH
VL: B1 VL with F10Y, V15P, V19I, P44N

EC50 [1]: 0.163 nM
B5: humanized PTK7 antibody Hu13H2L0 (antibody, V domains shown)
VH: B1 VH with I20V, K38R, I48M, A68V, V72R, A92V
VL: B1 VL with V2I, I4L, M85T

EC50 [1]: 0.189 nM
EC50 [2]: 0.0472 nM
binding result [3]: no binding
EC50 [4]: 0.0571 nM
B6: human-murine chimeric PTK7 antibody ch13 (antibody, V domains shown)
VH: QVQLQQSGAELVRPGVSVKISCKGSGYTFTDYGMHWLKQSHAKSLEWIGVISPYYGDVTYNQKFKGKATMTVDKSSSTAYMELARLTSEDSAIYYCARGMGYWGQGTSVTVSS
VL: DVQITQSPSYLAASPGETITINCRASQSISKYLAWYQEKPGKTNKLLIYSGSTLQSGIPSRFSGSGSGTDFTLTISSLEPEDFAMYYCQQHNEYPWTFGGGTKLEIK
